Experimental findings from patent publication US20240417475A1 (AFFIMED, published 2024) are described below.

For experiment [1], the target named is T1, human FOLR1 endogenously expressed on tumor cell lines (human, UniProt P15328 25-234). The experiment can be described thus: cell-based or functional assay.
Experiment [2] deals with T1, human FOLR1 endogenously expressed on …. The experiment can be described thus: flow cytometry on HCC-827 cells, 37 C, one-site fit of MFI, mean. The procedure: (§1) Cells were collected and centrifuged at 400×g, 5 min, 4° C. Cell pellets were resuspended in FACS buffer (PBS (Invitrogen, cat.: 392-0434) containing 2% h.i. FCS (Invitrogen, cat.: 10500-064), and 0.1% sodium azide (Sigma, cat.: S8032)) at 1-5×10⁶ cells/mL. 100 μL/well of the cell suspension were transferred into U-shaped, 96-well micro plates (0.1-0.5×10⁶ cells per well), cells were pelleted at 400×g, 5 min, 4° C., and resuspended in 100 μL/well of serial dilutions of the indicated antibodies in FACS buffer. After 40-50 min incubation at 37° C., cells were washed 3-times with ice-cold FACS buffer. […] After the final incubation step, cells were washed 2-times with ice-cold FACS buffer, and the cell pellet was resuspended in 100 μL FACS buffer. Fluorescence intensities of >1×10⁴ viable cells were analyzed by flow cytometry and the median fluorescence intensity (MFI) was determined for each sample.
(§2) Equilibrium dissociation constants (KD) of antibody binding, mean and standard deviation (SD) were calculated by plotting MFI values and fitting a non-linear regression model for one-site binding to hyperbolic dose-response curves using GraphPad Prism for Windows (v9; GraphPad Software; La Jolla California USA).
(§3) Specific antibody binding capacity (SABC) as a marker for FOLR1 expression level on cells was determined on all tumor cell lines using QIFIKIT.
In general terms: In flow cytometry, cells or beads pass a laser one at a time.

The target is the same in experiment [3]. In words: flow cytometry on IGROV-1 cells, 37 C, one-site fit of MFI, mean. As for the experimental part: as §1, §2, §3
For experiment [4] the target is unchanged. The experiment can be described thus: flow cytometry on OVCAR-3 cells, 37 C, one-site fit of MFI, mean. The procedure:
as §1, §2, §3

Experiment [5] shares this target. In words: flow cytometry on NCI-H2110 cells, 37 C, one-site fit of MFI, mean. As for the experimental part:
as §1, §2, §3

Experiment [6] has as its target T2, human CD16A-mFc (158V) (sAg_149) (human, UniProt P08637 17-208).
T2 construct: also called CD16A 158V (sAg_149); recombinant human CD16A 158V
The experiment can be described thus: ELISA, plate coated with human CD16A-mFc (158V) (sAg_149), one-site fit, mean of 3. As for the experimental part: (§4) After incubation with the secondary antibodies, the plate was washed five times with PBST and one time with PBS. Chromogenic substrate (1:1 mixture of TMB:TMBB, SeraCare cat: 5120-0048 and 5120-0037) was added and the reaction was stopped by addition of an equal volume of 0.5 M H₂SO₄ after sufficient color development. Absorbance at 450 nm was measured in an ELISA plate reader (Sunrise Absorbance Reader 901000833, Schoeller Instruments). The absorbance values were corrected by subtracting the background of the respective secondary antibody and fitted with a one site binding function (hyperbola) using GraphPad Prism (version 9.3.1. GraphPad Software, La Jolla California USA). KD is the concentration of ligand required to reach half-maximal binding.

Experiment [7] addresses T3, human FOLR1-mFc_Avi-tag (sAg_303) (human, UniProt P15328 25-234, limits assumed).
T3 construct: also called human FOLR1 (sAg_303); recombinant human FOLR1
The experiment can be described thus: ELISA, plate coated with human FOLR1-mFc_Avi-tag (sAg_303), one-site fit, mean of 3. The procedure:
as §4, with “96 well ELISA plates (F96 Maxisorp Immuno Plate, Nunc, cat: 442404) were coated overnight at 4° C. with 50 μL/well of 10 μg/mL human FOLR1-mFc_Avi-tag in DPBS. After overnight incubation plates were washed three times with PBST and blocked with Candor Blocking solution for 2 h at RT under mild agitation. […] After” for “After”
On the technique in general: In an ELISA, binding on a coated surface is turned into a signal by an enzyme label.

Experiment [8] concerns the target T3, human FOLR1-mFc_Avi-tag (sAg_303). In words: ELISA, plate coated with human FOLR1-mFc_Avi-tag, anti-human Fab-HRP detection, A450. As for the experimental part:
as §4, with “96 well ELISA plates (F96 Maxisorp Immuno Plate, Nunc, cat: 442404) were coated overnight at 4° C. with 50 μL/well of 10 μg/mL human FOLR1-mFc_Avi-tag in DPBS. After overnight incubation plates were washed three times with PBST and blocked with Candor Blocking solution for 2 h at RT under mild agitation. […] After” for “After”

Experiment [9] has as its target T1, human FOLR1 endogenously expressed on …. The experiment can be described thus: flow cytometry on IGROV-1 cells (FOLR1 high) at 37 °C, FITC anti-human IgG detection. The procedure:
as §1

Experiment [10] has the same target. In words: flow cytometry on OVCAR-3 cells (FOLR1 medium) at 37 °C, FITC anti-human IgG detection. The procedure:
as §1

In experiment [11] the target is T4, human CD16A (158F) expressed on CHO cells (cAg_34) (human, UniProt P08637 17-254).
T4 construct: also called huCD16A-transfected CHO cells
The experiment can be described thus: flow cytometry on huCD16A-transfected CHO cells (cAg_34), one-site fit of MFI, mean of 3. As for the experimental part: (§5) To analyze binding of different antibody constructs to CHO cells transfected with human CD16A (cAg_34), relative to CD16 expression by flow cytometry, 1-2×10⁵ were resuspended in 100 μL FACS buffer (PBS (Invitrogen, cat.: 14190-169) containing 2% heat-inactivated FCS (Invitrogen, cat.: 10270-106), and 0.1% sodium azide (Roth, Karlsruhe, Germany, cat.: A1430.0100)) in round-bottom 96-well microtiter plates. After washing in FACS buffer, cells were incubated in 50 μL FACS buffer without antibodies or with titrated antibodies starting at a concentration of 100 μg/mL followed by ten 5-fold serial dilutions for 30 min on ice in the dark. […] After washing, binding was measured by flow cytometry and mean fluorescence intensities (MFI) of cell samples were calculated and corrected for background staining using control cells stained with secondary antibodies only.
(§6) Equilibrium dissociation constants (KD) of antibody binding were calculated by plotting MFI values and fitting a non-linear regression model for one-site binding to hyperbolic dose-response curves using GraphPad Prism.

In experiment [12] the target is T4, human CD16A (158F) expressed on CHO …. In words: flow cytometry on huCD16A-transfected CHO cells (cAg_34), one-site fit of MFI, experiment 1. The procedure: as §5, §6
The target is the same in experiment [13]. In words: flow cytometry on huCD16A-transfected CHO cells (cAg_34), one-site fit of MFI, experiment 2. The procedure: as §5, §6
The target is the same in experiment [14]. The experiment can be described thus: flow cytometry on huCD16A-transfected CHO cells (cAg_34), one-site fit of MFI, experiment 3. As for the experimental part: as §5, §6
For experiment [15] the target is unchanged. The experiment can be described thus: flow cytometry on huCD16A-transfected CHO cells, on ice, APC goat anti-human IgG detection. As for the experimental part: as §5

T1 sequence (P15328 25-234): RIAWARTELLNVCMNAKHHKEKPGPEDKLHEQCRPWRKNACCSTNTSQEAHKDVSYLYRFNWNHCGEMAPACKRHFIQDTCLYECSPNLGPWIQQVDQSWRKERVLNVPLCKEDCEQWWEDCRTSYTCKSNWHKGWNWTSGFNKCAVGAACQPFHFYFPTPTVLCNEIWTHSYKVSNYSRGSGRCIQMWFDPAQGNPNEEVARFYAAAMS
T4 sequence (P08637 17-254 limits assumed): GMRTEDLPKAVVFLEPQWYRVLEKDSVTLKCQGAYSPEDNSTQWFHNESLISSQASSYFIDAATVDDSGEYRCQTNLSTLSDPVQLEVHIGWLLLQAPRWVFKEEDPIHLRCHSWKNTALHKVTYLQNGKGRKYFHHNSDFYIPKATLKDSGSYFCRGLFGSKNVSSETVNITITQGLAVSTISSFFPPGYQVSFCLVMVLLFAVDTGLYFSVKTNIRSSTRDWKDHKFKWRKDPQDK
T3 sequence (P15328 25-234 limits assumed): as the sequence (P15328 25-234) above
T2 sequence (P08637 17-208 F176V limits assumed): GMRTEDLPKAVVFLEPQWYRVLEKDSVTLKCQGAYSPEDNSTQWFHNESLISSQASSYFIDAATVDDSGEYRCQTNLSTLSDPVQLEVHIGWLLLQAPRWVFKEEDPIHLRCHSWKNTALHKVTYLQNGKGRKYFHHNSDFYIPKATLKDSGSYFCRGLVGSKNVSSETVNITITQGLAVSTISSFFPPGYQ

B1: anti-FOLR1 IgG1 IgAb_335 (antibody)
chain 1: not shown
chain 2: DIQLTQSPSSLSASVGDRVTITCSVSSSISSNNLHWYQQKPGKAPKPWIYGTSNLASGVPSRFSGSGSGTDYTFTISSLQPEDIATYYCQQWSSYPYMYTFGQGTKVEIKRTVAAPSVFIFPPSDEQLKSGTASVVCLLNNFYPREAKVQWKVDNALQSGNSQESVTEQDSKDSTYSLSSTLTLSKADYEKHKVYACEVTHQGLSSPVTKSFNRGEC
notes: IgG1 with farletuzumab-derived Fv domains and wild-type Fc; also called IgAb_355; anti-FOLR1 IgG1 antibody comprising wild-type Fc
Turning to B1, the “EC50 [nM] of ADCP, HCC-78 cells” value in [1] was 0.81 nM. For the same molecule, the “EC50 [nM] of ADCP, HeLa cells” value in [1] worked out at 0.78 nM. Besides, the “Phagocytosis [%], 4 h ADCP, DK-MG cells” value in [1] was 0%. In experiment [1], the “Phagocytosis [%], 4 h ADCP, HCC-78 cells” value worked out at 10.7%. For the same molecule, the “Phagocytosis [%], 4 h ADCP, HeLa cells” value in experiment [1] amounted to 16.4%. Further, the Kd (as a rule, the equilibrium constant for the complex coming apart) in experiment [2] stood at 3.2 nM; in experiment [3] it was 4.4 nM; in experiment [4] it was 1.8 nM; in experiment [5], 2.3 nM; in [6] it was 3.53 nM; in experiment [7], 0.05 nM. Also, the EC50 (read off the curve) (usually the concentration that produces a half-maximal response) in [8] was around 0.05 nM; in experiment [9], around 4 nM; in experiment [10], around 2 nM.

B2: scFv-IgAb_148 (CD123-1×CD16a2) (bispecific antibody)
chain 1: QVQLQQSGAEVKKPGASVKVSCKASGYTFTDYYMKWVKQSHGKSLEWMGDIIPSNGATFYNQKFKGKATLTVDRSTSTAYMELSSLRSEDTAVYYCARSHLLRASWFAYWGQGTLVTVSSASTKGPSVFPLAPSSKSTSGGTAALGCLVKDYFPEPVTVSWNSGALTSGVHTFPAVLQSSGLYSLSSVVTVPSSSLGTQTYICNVNHKPSNTKVDKKVEPKSCDKTHTCPPCPAPEFEGGPSVFLFPPKPKDTLMISRTPEVTCVVVAVSHEDPEVKFNWYVDGVEVHNAKTKPREEQYNSTYRVVSVLTVLHQDWLNGKEYKCKVSNKALPAPIEKTISKAKGQPREPQVYTLPPSREEMTKNQVSLTCLVKGFYPSDIAVEWESNGQPENNYKTTPPVLDSDGSFFLYSKLTVDKSRWQQGNVFSCSVMHEALHNHYTQKSLSLSPGGGGGSGGGGSGGGGSGGGGSGGGGSGGGGSSYVLTQPSSVSVAPGQTATISCGGHNIGSKNVHWYQQRPGQSPVLVIYQDNKRPSGIPERFSGSNSGNTATLTISGTQAMDEADYYCQVWDNYSVLFGGGTKLTVLGGSGGSGGSGGSGGSGGSGGSQVQLVQSGAEVKKPGESLKVSCKASGYTFTSYYMHWVRQAPGQGLEWMGAIEPMYGSTSYAQKFQGRVTMTRDTSTSTVYMELSSLRSEDTAVYYCARGSAYYYDFADYWGQGTLVTVSS
chain 2: not shown
notes: also called CD123×CD16A scFv-IgAb_148; CD123/CD16A scFv-IgAb_148
As for B2, the Kd was determined as 37.6 nM in experiment [11], 56.2 nM in experiment [12], 18.7 nM in experiment [13] and 37.9 nM in [14]. Moreover, in experiment [15], the “EC50 (read off the curve)” value is around 20 nM.
